Measured values reported in patent US20110135573A1 (DYAX, published 2011).
Blank lines part the entries; values can stand above or below the binder they belong to.

Experiments:
h-MMP-9/h-TIMP-1 complex [1] = biological target: T1, h-MMP-9/h-TIMP-1 complex (human, UniProt P14780 107-457; P01033 24-207, limits assumed); test: SPR (Biacore 3000), antibody captured via anti-Fc
T1 construct: Preformed non-covalent complex flowed over the antibody surfaces; also called huTIMP-1/cat-huMMP-9; h-TIMP-1/h-MMP-9 complex
T1 sequence (P14780 107-457 limits assumed, chain 1 of 2): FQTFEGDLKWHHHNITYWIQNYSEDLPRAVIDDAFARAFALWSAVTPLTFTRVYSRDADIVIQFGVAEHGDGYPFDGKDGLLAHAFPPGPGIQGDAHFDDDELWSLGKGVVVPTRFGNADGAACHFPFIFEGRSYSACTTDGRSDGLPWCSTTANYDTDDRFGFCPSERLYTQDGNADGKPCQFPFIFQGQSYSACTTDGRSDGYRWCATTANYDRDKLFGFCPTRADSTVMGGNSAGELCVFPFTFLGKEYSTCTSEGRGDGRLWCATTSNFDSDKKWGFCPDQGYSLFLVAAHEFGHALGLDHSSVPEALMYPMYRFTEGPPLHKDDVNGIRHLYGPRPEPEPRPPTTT
T1 sequence (P01033 24-207 limits assumed, chain 2 of 2): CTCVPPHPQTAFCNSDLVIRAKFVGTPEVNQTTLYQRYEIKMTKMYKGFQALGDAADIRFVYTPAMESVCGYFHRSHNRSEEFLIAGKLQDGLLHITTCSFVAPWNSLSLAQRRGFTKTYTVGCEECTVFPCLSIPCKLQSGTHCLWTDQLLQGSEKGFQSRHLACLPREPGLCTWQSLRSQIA
Procedure: (§1) Experiments were performed at 25° C. with the help of a Biacore 3000 instrument. The MMP-9 binding protein (M0166F10) and the M0237-D02 antibody were coated to a CM5 chip either via standard amine coupling or using an anti-Fc antibody surface. Then either the active, human MMP-9 catalytic domain (BIOMOL, SE-244), the human pro-MMP-9 (R&D, 911-MP), the human TIMP-1 (R&D, 970-TM) or a h-MMP-9/h-TIMP-1 complex were flowed over the antibody surfaces, and binding was recorded.
(§2) It was shown that the human MMP-9 catalytic domain binds to M0166-F10, whether this antibody is directly captured via amine coupling or captured with an anti-Fc antibody surface.

[2] = biological target: T2, human MMP-2 (Biomol #SE-237) (human, UniProt P08253 110-452, limits assumed); test: Ki,app, enzyme inhibition assay (fluorogenic peptide substrate), IgG
T2 construct: also called hMMP-2
T2 sequence (P08253 110-452 limits assumed): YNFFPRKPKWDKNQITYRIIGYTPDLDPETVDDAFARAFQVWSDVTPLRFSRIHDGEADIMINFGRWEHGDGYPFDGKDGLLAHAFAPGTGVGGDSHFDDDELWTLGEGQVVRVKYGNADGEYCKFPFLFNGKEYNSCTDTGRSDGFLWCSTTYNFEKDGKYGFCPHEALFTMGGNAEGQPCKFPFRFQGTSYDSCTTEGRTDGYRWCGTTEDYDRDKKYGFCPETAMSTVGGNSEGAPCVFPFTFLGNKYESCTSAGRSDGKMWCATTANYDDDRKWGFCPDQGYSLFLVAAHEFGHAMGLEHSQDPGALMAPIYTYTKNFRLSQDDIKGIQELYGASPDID

[3] = biological target: T3, Mouse MMP-9 (R&D, 909-MM), APMA-activated (mouse, UniProt P41245 108-730, limits assumed); test: Ki,app, enzyme inhibition assay (fluorogenic peptide substrate), IgG; told as Ki of 1.3±0.1 nM in Example 2
T3 construct: also called mMMP-9; mouse MMP-9 (R&D Systems #909-MM-010)
T3 sequence (P41245 108-730 limits assumed): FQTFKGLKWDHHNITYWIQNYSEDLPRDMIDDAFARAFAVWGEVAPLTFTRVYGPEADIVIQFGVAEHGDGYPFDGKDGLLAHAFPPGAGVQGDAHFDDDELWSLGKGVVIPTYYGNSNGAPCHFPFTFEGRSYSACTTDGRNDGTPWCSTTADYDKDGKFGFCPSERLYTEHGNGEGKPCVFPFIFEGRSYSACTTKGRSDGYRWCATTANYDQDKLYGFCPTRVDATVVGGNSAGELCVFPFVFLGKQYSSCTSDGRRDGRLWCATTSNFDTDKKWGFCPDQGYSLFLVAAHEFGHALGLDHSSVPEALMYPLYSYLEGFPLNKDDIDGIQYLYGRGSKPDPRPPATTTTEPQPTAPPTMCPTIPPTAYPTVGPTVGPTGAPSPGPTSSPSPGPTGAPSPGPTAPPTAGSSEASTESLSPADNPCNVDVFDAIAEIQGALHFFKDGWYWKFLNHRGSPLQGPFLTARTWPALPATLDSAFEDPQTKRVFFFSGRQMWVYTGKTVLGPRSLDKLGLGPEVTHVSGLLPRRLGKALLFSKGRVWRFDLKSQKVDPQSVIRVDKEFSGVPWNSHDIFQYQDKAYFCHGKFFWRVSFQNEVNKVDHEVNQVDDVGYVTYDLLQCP
Procedure: (§3) Materials: [0495] Substrate: Mca-KPLGL-Dap(Dnp)-AR-NH₂ (M-2350) from BACHEM (521575). A 10 mM stock solution was prepared in DMSO. [0496] Enzymes: [0497] Human MMP-9 catalytic domain (BIOMOL, SE-244). Enzyme concentration was measured by titration with TIMP-1 (2522-104) [0498] Mouse MMP-9 (R&D, 909-MM), APMA-activated. [0499] M0237-D02 hIgG1: 2517-014. Dialysed against TCN. [0500] TCNB: 50 mM Tris/HCl, 10 mM CaCl₂, 150 mM NaC, […] Brij 35, pH 7.5. [0501] -96-well black plates from Perkin Elmer (6005270) [0502] Spectramax M2e to measure fluorescence emission of the substrate upon hydrolysis (temperature control set at 30° C.; λexc=328 nm and λₑₘ=393 nm)
(§4) The enzyme (final concentration=0.23 and 0.17 nM for the human and mouse MMP-9, respectively) was preincubated with various concentrations (0-50 nM) of M0237-D02 for 1 h at 30° C. The substrate was then added to a final concentration ranging from 5 to 40 μM and initial rates were recorded.

[4] = biological target: T4, Human MMP-9 catalytic domain (BIOMOL, SE-244) (human, UniProt P14780 107-457, limits assumed); test: Ki,app, enzyme inhibition assay (fluorogenic peptide substrate), IgG; told as Ki of 0.92±0.04 nM in Example 2
T4 construct: domain: catalytic domain; also called Cat-huMMP-9; cat-huMMP-9
T4 sequence (P14780 107-457 limits assumed): as the sequence (P14780 107-457 limits assumed, chain 1 of 2) above
Procedure: as §3, §4

[5] = biological target: T4, Human MMP-9 catalytic domain (BIOMOL, …); test: plot of kobs against antibody concentration, inhibition progress curves
MMP-9 (PMA-activated) = MMP-9 (PMA-activated) (Homo sapiens (Human), UniProt P14780 107-707, Biotinylated for the phage selection; the biotin sites are not stated and the letters do not carry them.); test: apparent KD; method not stated
Sequence of MMP-9 (PMA-activated) (P14780 107-707 limits assumed, form in doubt): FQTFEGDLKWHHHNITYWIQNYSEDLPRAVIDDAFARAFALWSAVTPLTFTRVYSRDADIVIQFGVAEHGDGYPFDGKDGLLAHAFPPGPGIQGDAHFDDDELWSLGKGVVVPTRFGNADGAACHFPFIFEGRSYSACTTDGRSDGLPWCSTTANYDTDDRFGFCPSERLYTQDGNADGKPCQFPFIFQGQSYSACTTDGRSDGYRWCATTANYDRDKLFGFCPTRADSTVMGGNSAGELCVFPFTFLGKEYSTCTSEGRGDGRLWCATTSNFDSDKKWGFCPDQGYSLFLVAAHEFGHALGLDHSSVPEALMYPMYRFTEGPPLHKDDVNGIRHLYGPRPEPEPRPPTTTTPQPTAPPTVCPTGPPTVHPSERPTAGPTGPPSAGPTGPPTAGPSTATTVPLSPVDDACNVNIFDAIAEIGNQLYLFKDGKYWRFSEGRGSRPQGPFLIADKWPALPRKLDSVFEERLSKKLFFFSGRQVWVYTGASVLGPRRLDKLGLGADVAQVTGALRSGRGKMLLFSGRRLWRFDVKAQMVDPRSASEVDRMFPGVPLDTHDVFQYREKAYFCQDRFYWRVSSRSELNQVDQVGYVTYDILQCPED

[6] = biological target: T5, human pro-MMP-9 (R&D, 911-MP) (human, UniProt P14780 20-707); test: SPR (Biacore 3000), antibody amine-coupled (direct capture)
T5 construct: Pro-enzyme; also called Pro-huMMP-9
T5 sequence (P14780 20-707): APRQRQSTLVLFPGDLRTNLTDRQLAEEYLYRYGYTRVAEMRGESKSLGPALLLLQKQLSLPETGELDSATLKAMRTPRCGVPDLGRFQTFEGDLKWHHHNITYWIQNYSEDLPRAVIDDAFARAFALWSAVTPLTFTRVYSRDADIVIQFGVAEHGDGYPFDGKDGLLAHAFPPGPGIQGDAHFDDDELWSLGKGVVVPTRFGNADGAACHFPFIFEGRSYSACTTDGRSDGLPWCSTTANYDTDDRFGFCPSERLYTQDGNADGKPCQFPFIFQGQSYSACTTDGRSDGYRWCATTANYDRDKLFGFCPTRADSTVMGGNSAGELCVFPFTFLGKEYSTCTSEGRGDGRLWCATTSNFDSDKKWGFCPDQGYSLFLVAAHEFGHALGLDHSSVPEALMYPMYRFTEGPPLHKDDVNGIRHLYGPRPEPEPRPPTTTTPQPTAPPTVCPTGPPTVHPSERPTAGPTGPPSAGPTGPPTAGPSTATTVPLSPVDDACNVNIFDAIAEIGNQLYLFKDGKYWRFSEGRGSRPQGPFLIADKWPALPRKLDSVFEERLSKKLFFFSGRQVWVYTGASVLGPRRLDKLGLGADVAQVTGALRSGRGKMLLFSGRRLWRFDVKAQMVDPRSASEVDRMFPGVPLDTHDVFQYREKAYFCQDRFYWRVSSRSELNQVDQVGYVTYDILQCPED
Procedure: as §1, §2

h-MMP-9/h-TIMP-1 complex [7] = biological target: T1, h-MMP-9/h-TIMP-1 complex; test: as above
Procedure: as §1, §2

[8] = biological target: T6, human TIMP-1 (R&D, 970-TM) (human, UniProt P01033 24-207); test: as above
T6 construct: also called huTIMP-1; h-TIMP-1
T6 sequence (P01033 24-207 limits assumed): as the sequence (P01033 24-207 limits assumed, chain 2 of 2) above
Procedure: as §1, §2

binding result (h-MMP-9/h-TIMP-1 complex [1]): no binding
Ki [2]: 17 nM
Ki [3]: 1.3 nM
Ki [4]: 0.92 nM
koff [5]: ~0.0004 s⁻¹
kon [5]: ~70000 M⁻¹ s⁻¹
B1: 539A-M0237-D02 hIgG1 (antibody, V domains shown)
VH: EVQLLESGGGLVQPGGSLRLSCAASGFTFSQYPMWWVRQAPGKGLEWVSYIVPSGGRTYYADSVKGRFTISRDNSKNTLYLQMNSLRAEDTAVYYCAKDRAYGDYVGWNGFDYWGQGTLVTVSS
VL: DIQMTQSPATLSLSPGERATLSCRASQSISSFLAWYQQKPGQAPRLLIYDASYRATGIPARFSGSGSGTDFTLTISSLEPEDYAVYYCQQRGNWPITFGQGTRLEIK
notes: Tested as human IgG1 (parental); also called M237-D02; DL8

Kd (MMP-9 (PMA-activated)): 5.9 nM
B2: M0076-D03 (Fab, V domains shown)
VH: EVQLLESGGGLVQPGGSLRLSCAASGFTFSLYRMNWVRQAPGKGLEWVSYIGSSGGATAYADSVKGRFTISRDNSKNTLYLQMNSLRAEDTAVYYCARGAWYLDSWGQGTLVTVSS
VL: DIQMTQSPSSLSASVGDRVTITCRASQGIRNDLDWYQQKPGTAPKRLIYSASNLQSGVPSRFSGSGSGTEFTLTISNLQPEDLATYFCLQHNSFPLTFGQGTKVEIK
notes: variable domains only

binding result [6]: no binding
binding result (h-MMP-9/h-TIMP-1 complex [7]): no binding
binding result [8]: no binding
B3: 539A-M0166-F10 (antibody, V domains shown)
VH: EVQLLESGGGLVQPGGSLRLSCAASGFTFSPYLMNWVRQAPGKGLEWVSSIYSSGGGTGYADSVKGRFTISRDNSKNTLYLQMNSLRAEDTAVYYCARIYHSSSGPFYGMDVWGQGTTVTVSS
VL: QSELTQPPSASAAPGQRVTISCSGSSSNIGSNTVTWYQKLPGTAPKLLIYNNYERPSGVPARFSGSKSGTSASLAISGLQSEDEADYYCATWDDSLIANYVFGSGTKVTVLG
notes: also called DL15
